From patent US6903135B2, “Methods and products related to 16-HETE analogs” (Board of Regents, The University of Texas System, priority 1998, dated 2005) come the findings set out here.

This assay concerns rabbit model of thromboembolic stroke. Description: Rabbit model of thromboembolic stroke (clot embolization). In kind it is in vivo. The following applies: 16-HETE 1 mg/kg per minute for 1 h from 1 h after embolization; tPA 6.3 mg/kg at 3-5 h; FIG. 3. On the procedure:
New Zealand rabbits of either sex, weighing 3-4 kilograms were used for the study. Prior to the start of the experiment, the rabbits were divided into three groups, those that were administered both 16-HETE at a rate of 1 mg/kg per minute for one hour and tPA (Genentech, Inc., San Francisco, Calif.) at a concentration of 6.3 mg/kg, tPA alone, or vehicle.
On the day of treatment the animals were fasted for 12 hours with free access to water and then anesthetized with an intramuscular solution of ketamine (50 mg/kg), acepromazine (20 mg) and xylazine (5 mg/kg). This solution was subsequently used to maintain a surgical depth of anesthesia as determined by responses to various physiologic and autonomic stimuli, including mean arterial pressure and response to paw pinch.
The animals were prepared for surgery by introducing femoral venous and arterial catheters (PE50 and 90, respectively; Clay Adams, Parsippany, N.J.). The catheters were placed for subsequent blood sampling, including blood gas and arterial pressure, drug infusions, and fluid replacement.
All animals were tracheotomized and mechanically ventilated in order to maintain arterial blood gases within a physiologic range. Arterial blood gas measurements (pH, pCO2, pO2) were determined, using a Corning 168 blood gas monitor. […]

B1: tPA: tissue plasminogen activator, thrombolytic agent (Genentech, Inc.) (protein, UniProt P00750 36-562, looked up)
Tissue-type plasminogen …: SYQVICRDEKTQMIYQQHQSWLRPVLRSNRVEYCWCNSGRAQCHSVPVKSCSEPRCFNGGTCQQALYFSDFVCQCPEGFAGKCCEIDTRATCYEDQGISYRGTWSTAESGAECTNWNSSALAQKPYSGRRPDAIRLGLGNHNYCRNPDRDSKPWCYVFKAGKYSSEFCSTPACSEGNSDCYFGNGSAYRGTHSLTESGASCLPWNSMILIGKVYTAQNPSAQALGLGKHNYCRNPDGDAKPWCHVLKNRRLTWEYCDVPSCSTCGLRQYSQPQFRIKGGLFADIASHPWQAAIFAKHRRSPGERFLCGGILISSCWILSAAHCFQERFPPHHLTVILGRTYRVVPGEEEQKFEVEKYIVHKEFDDDTYDNDIALLQLKSDSSRCAQESSVVRTVCLPPADLQLPDWTECELSGYGKHEALSPFYSERLKEAHVRLYPSSRCTSQHLLNRTVTDNMLCAGDTRSGGPQANLHDACQGDSGGPLVCLNDGRMTLVGIISWGLGCGQKDVPGVYTKVTNYLDWIRDNMRP
On to B1, for which the brain infarct size result was “significantly larger”.
